Experimental data reported in PMC7137805.

Tests used:
[1] = molecular target: Recombinant human laminin‐332 (human) (UniProt Q16787); assay: SPR; BIAcore 3000, 25 °C; laminin-332 immobilised on a CM5 chip (approx. 5000 RU); vWFA2 as analyte, 2.5-420 µM; running buffer 10 mM sodium phosphate pH 7.4, 150 mM NaCl; binding isotherms
[2] = molecular target: Recombinant human laminin‐332 (human) (UniProt Q16787); assay: SPR; as a1, with MgCl2 added to the running buffer to 2.5 mM

Kd [1] | Kd [2] | Substance
440 µM |  | untagged vWFA2 (vWFA2 lacking any tag residues) of murine type VII collagen (from UniProt Q63870 1048-1238) (domain or fragment)
810 µM | 1100 µM | vWFA2 subdomain (amino acids 1048–1238) of murine type VII collagen, purified by intein cleavage (from UniProt Q63870 1048-1238) (domain or fragment)
